Measured values published in the Immune Epitope Database (IEDB).
Blank lines part the entries; values can stand above or below the sequence they belong to.

Tests used:
[1] = molecular target: HLA-A*30:01; assay: IEDB peptide-MHC binding, purified MHC/competitive/radioactivity; filed as Kd, often an IC50 or EC50 that approximates it; ≥ and ≤ were set here for values at or beyond the usual limits of such assays
[2] = molecular target: HLA-B*08:01; assay: as above
[3] = molecular target: HLA-A*32:01; assay: as above
[4] = molecular target: HLA-A*02:01; assay: IEDB peptide-MHC binding, purified MHC/direct/fluorescence; filed as Kd, often an IC50 or EC50 that approximates it; ≥ and ≤ were set here for values at or beyond the usual limits of such assays
[5] = molecular target: HLA-B*40:01; assay: IEDB peptide-MHC binding, purified MHC/competitive/radioactivity; filed as Kd, often an IC50 or EC50 that approximates it; ≥ and ≤ were set here for values at or beyond the usual limits of such assays
[6] = molecular target: HLA-A*02:01; assay: IEDB peptide-MHC binding, purified MHC/competitive/fluorescence; ≥ and ≤ were set here for values at or beyond the usual limits of such assays
[7] = molecular target: HLA-B*53:01; assay: IEDB peptide-MHC binding, purified MHC/competitive/radioactivity; filed as Kd, often an IC50 or EC50 that approximates it; ≥ and ≤ were set here for values at or beyond the usual limits of such assays; details: source organism: Dengue virus 2 Jamaica/1409/1983
[8] = molecular target: HLA-A*23:01; assay: as above
[9] = molecular target: HLA-A*24:02; assay: as above
[10] = molecular target: HLA-A*03:01; assay: IEDB peptide-MHC binding, purified MHC/direct/fluorescence; filed as Kd, often an IC50 or EC50 that approximates it; ≥ and ≤ were set here for values at or beyond the usual limits of such assays; details: source organism: Burkholderia ambifaria AMMD
[11] = molecular target: HLA-A*69:01; assay: as above
[12] = molecular target: HLA-B*27:05; assay: as above; details: source organism: SARS-CoV1
[13] = molecular target: HLA-A*01:01; assay: as above; details: source organism: Influenza A virus (A/chicken/Nanchang/7-010/2000(H3N6))
[14] = molecular target: HLA-A*11:01; assay: as above; details: source organism: Mycobacterium tuberculosis
[15] = source organism: Vaccinia virus WR
[16] = source organism: Dengue virus 1 Brazil/97-11/1997
[17] = source organism: Dengue virus 2 Jamaica/1409/1983
[18] = source organism: Dengue virus 4 Philippines/H241/1956
[19] = source organism: Dengue virus 3 Martinique/1243/1999
[20] = source organism: Dengue virus 2 Peru/IQT2913/1996
[21] = source organism: Dengue virus 4 Dominica/814669/1981
[22] = source organism: Zaire ebolavirus
[23] = source organism: Yersinia pestis Antiqua
[24] = source organism: Marburg virus - Musoke, Kenya, 1980
[25] = source organism: Mycobacterium tuberculosis
[26] = source organism: Encephalitozoon cuniculi

Sequence: KIKSPIYYK
Kd ([1]; source organism: Vaccinia virus Copenhagen): 0.932 nM

Sequence: KISISYIKL
Kd [1, 15]: 292 nM

Sequence: KKKQRSGVL
Kd [2, 16]: 2290 nM

Sequence: KNFAGPVSQ
Kd [3, 17]: ≥ 44900 nM

Sequence: KREDLWCGSL
Kd [2, 18]: 4730 nM

Sequence: KTALLIVSG
Kd [3, 19]: 6830 nM

Sequence: KTLAPFNFL
Kd [1, 15]: 15 nM

Kd ([4]; source organism: Haemophilus influenzae): 7070 nM
Sequence: KTQEPPQVA

Sequence: KTSGYISSF
Kd [3, 15]: 0.502 nM

Sequence: KVRPTFAAG
Kd [1, 17]: 4.4 nM

Sequence: KWKNRLNAL
Kd [2, 20]: 157 nM

Sequence: LARWGSFKK
Kd ([1]; source organism: Dengue virus 1 Singapore/S275/1990): 24.4 nM

Sequence: LAVVSVSPLL
Kd [1, 20]: 11900 nM

Sequence: LEFEALGFMN
Kd [5, 16]: 2660 nM

Sequence: LEHGGCVTTM
Kd [5, 19]: 9.41 nM

Sequence: LEKRHVLGRL
Kd [2, 17]: 7040 nM

Sequence: LFSYGTLII
IC50 ([6]; source organism: Variola virus): ≥ 72600 nM

Sequence: LGLNSRSTSL
Kd [2, 16]: 39.9 nM

Sequence: LGRNKKPRL
Kd [2, 19]: 265 nM

Sequence: LLIHFLLSL
Kd [3, 15]: ≥ 52800 nM

Sequence: LLLMRTSWA
Kd [2, 19]: 10.3 nM

Sequence: LLNNYTLKI
Kd [3, 15]: 25.4 nM

Sequence: LQLKGMSYSM
Kd [2, 17]: 70 nM

Sequence: LSPETLVGV
IC50 ([6]; source organism: Vaccinia virus): 904 nM

Sequence: LSTRDGEPLM
Kd [1, 18]: 1630 nM

Sequence: MLIPKSYAG
Kd [2, 21]: 114 nM

Sequence: MTTEDMLAVW
Kd [7]: 354 nM

Sequence: MWKQITPEL
Kd [8, 17]: 170 nM

Sequence: NLHYWTTQD
IC50 [6, 22]: ≥ 124000 nM

Sequence: NPLTLTAAVL
Kd [2, 16]: 305 nM

Sequence: NSTLEVTEI
IC50 ([6]; source organism: Sudan ebolavirus): ≥ 97400 nM

Sequence: NYILWENNI
Kd [8, 19]: 6.03 nM
Kd [9, 19]: 2.85 nM

Sequence: NYRPGYFTQ
Kd [9, 16]: ≥ 44400 nM

Sequence: PGPDNSTHN
IC50 [6, 22]: ≥ 472000 nM

Sequence: PRRCMKPVIL
Kd [2, 17]: 2470 nM

Sequence: PTVAPPAPV
IC50 [6, 22]: ≥ 171000 nM

Sequence: PWLKNNQFCI
Kd [8, 19]: 102 nM
Kd [9, 19]: 224 nM

Sequence: PYMPSVVETL
Kd [8, 16]: 32.2 nM
Kd [9, 16]: 31.9 nM

Sequence: QWMTTEDMLT
Kd [9, 19]: 6100 nM

Sequence: RARYKKMLK
Kd [1, 15]: 1.04 nM

Sequence: RFGTSLLFL
Kd [9, 21]: 673 nM

Sequence: RLFARTGLE
Kd [10]: 748 nM

Sequence: RLKMDKLTL
Kd [2, 16]: 268 nM

Sequence: RLKSAVCYK
Kd [1, 15]: 0.175 nM

Sequence: RQWFFDLPL
Kd [5, 19]: 42 nM
Kd [3, 19]: 1.17 nM

Sequence: RQWFFDLPLP
Kd [1, 19]: 10800 nM

Sequence: RQWFLDLPLP
Kd [1, 17]: 11600 nM

Sequence: RSGAYVSAI
Kd [3, 17]: 378 nM

Sequence: RTKFQNRAK
Kd [1, 15]: 0.159 nM

Sequence: RVLLLTPEV
Kd [1, 15]: 48.6 nM

Sequence: SGQSPARTS
IC50 [6, 22]: ≥ 234000 nM

Sequence: SILGIGTVL
IC50 ([6]; source organism: Hepatitis C virus genotype 1): ≥ 100000 nM

Sequence: SLGGVFTSI
Kd [3, 17]: 294 nM

Sequence: SQGRGWFLL
Kd [4, 23]: 284 nM
Kd [11, 23]: ≥ 20000 nM

Sequence: SRYWEPEFY
Kd [12]: 1190 nM

Sequence: SSEDLNGMI
Kd [13]: ≥ 20000 nM

Sequence: STASDTPSA
IC50 [6, 22]: 12200 nM

Sequence: STRVEMGEA
Kd [1, 17]: 13.9 nM

Sequence: TEDDLQNEEL
Kd [5, 21]: 136 nM

Sequence: TEHGTIATI
Kd [5, 16]: 80 nM

Sequence: TIFTLTVAW
Kd ([3]; source organism: Dengue virus 3 Sri Lanka/1266/2000): 157 nM

Sequence: TMLSIILVI
Kd [3, 15]: 15.6 nM

Sequence: TTFGRIGVK
Kd [14]: 2 nM

Sequence: TWAYHGSYET
Kd [9, 17]: 2160 nM

Sequence: VESWEEVPYL
Kd [5, 17]: 41 nM

Sequence: VFGAIYGAAF
Kd [8, 17]: 4.48 nM
Kd [9, 17]: 323 nM

Sequence: VLYNNVVEF
Kd [3, 15]: 1.45 nM

Sequence: VMNPLGLNV
Kd [4, 24]: 320 nM
Kd [11, 24]: 780 nM

Sequence: VVEPPRQLV
Kd [4, 25]: ≥ 5000 nM
Kd [11, 25]: 20000 nM

Sequence: WRLSAQWQKG
Kd [3, 19]: ≥ 36000 nM

Sequence: WYMWLGARYL
Kd [8, 19]: 18.2 nM
Kd [9, 19]: 17.8 nM

Sequence: YLPRFLFGV
Kd [4, 25]: 1.8 nM

Kd [4, 26]: 7000 nM
Kd [11, 26]: ≥ 20000 nM
Sequence: YLVPGEGEQ

Sequence: YVILTILTI
Kd [9, 18]: 6010 nM
